Literature values as cited in US9180102B2, “Methods for fabricating nano and microparticles for drug delivery” (BOARD OF REGENTS, THE UNIVERSITY OF TEXAS SYSTEM, priority 2005, dated 2015).

Biological target: Cathepsin B (Homo sapiens, UniProt P07858)
Settings: degradation of peptide spacer by lysosomal protease

sensitivity of peptide spacer sequence to Cathepsin B: especially sensitive
Substance: Gly-Phe-Leu-Gly (GFLG; printed: Gly-Phe-Leu-Gly)
